Assays:
[1] = target: RRV 26–95 gH-V5/gL-Flag complex (rhesus monkey rhadinovirus (RRV) isolate 26–95)
[2] = target: recombinant RRV 26–95 gH-FcStrep/gL (rhesus monkey rhadinovirus (RRV) isolate 26–95); test: ELISA; RRV 26–95 gH-FcStrep/gL coated at 1μg/ml in PBS; Plxdc1 or Plxdc2 ectodomain 2h at room temperature in 10% FBS in PBS; detected by the C-terminal 6XHis Tag; fit: one site specific binding with Hill slope (Prism6)

| Substance | infection of SLK cells by RRV-YFP wt after preincubation with 250nM hPlxdc2-FcStrep, relative to preincubation with FcStrep (Fig 2D) (% of control infection) [1] | infection of rhesus monkey fibroblasts (RF) by RRV-YFP wt after preincubation with 250nM hPlxdc2-FcStrep, relative to preincubation with FcStrep (Fig 2D) (% of control infection) [1] | EC50 [2] |
| --- | --- | --- | --- |
| soluble human Plxdc2, ectodomain (amino acids 31–453) fused to IgG1 Fc with a C-terminal tandem Strep-Tag (from UniProt Q6UX71-1 31-453) (Fc fusion) | 63.5 | 73.9 | – |
| human Plxdc2 ectodomain (aa 1–453) with a 6XHis Tag (from UniProt Q6UX71-1 31-453) (domain or fragment) | – | – | 5.2 nM |
| human Plxdc1 ectodomain (aa 1–425) with a 6XHis Tag (from UniProt Q8IUK5-1 19-425) (domain or fragment) | – | – | 22.2 nM |

Source: article PMC7959344
